Source: article PMC8854693

Target: intact GluN1b-GluN2B NMDA receptor (rat) (UniProt Q00960)
Sequence (Q00960 whole entry, looked up): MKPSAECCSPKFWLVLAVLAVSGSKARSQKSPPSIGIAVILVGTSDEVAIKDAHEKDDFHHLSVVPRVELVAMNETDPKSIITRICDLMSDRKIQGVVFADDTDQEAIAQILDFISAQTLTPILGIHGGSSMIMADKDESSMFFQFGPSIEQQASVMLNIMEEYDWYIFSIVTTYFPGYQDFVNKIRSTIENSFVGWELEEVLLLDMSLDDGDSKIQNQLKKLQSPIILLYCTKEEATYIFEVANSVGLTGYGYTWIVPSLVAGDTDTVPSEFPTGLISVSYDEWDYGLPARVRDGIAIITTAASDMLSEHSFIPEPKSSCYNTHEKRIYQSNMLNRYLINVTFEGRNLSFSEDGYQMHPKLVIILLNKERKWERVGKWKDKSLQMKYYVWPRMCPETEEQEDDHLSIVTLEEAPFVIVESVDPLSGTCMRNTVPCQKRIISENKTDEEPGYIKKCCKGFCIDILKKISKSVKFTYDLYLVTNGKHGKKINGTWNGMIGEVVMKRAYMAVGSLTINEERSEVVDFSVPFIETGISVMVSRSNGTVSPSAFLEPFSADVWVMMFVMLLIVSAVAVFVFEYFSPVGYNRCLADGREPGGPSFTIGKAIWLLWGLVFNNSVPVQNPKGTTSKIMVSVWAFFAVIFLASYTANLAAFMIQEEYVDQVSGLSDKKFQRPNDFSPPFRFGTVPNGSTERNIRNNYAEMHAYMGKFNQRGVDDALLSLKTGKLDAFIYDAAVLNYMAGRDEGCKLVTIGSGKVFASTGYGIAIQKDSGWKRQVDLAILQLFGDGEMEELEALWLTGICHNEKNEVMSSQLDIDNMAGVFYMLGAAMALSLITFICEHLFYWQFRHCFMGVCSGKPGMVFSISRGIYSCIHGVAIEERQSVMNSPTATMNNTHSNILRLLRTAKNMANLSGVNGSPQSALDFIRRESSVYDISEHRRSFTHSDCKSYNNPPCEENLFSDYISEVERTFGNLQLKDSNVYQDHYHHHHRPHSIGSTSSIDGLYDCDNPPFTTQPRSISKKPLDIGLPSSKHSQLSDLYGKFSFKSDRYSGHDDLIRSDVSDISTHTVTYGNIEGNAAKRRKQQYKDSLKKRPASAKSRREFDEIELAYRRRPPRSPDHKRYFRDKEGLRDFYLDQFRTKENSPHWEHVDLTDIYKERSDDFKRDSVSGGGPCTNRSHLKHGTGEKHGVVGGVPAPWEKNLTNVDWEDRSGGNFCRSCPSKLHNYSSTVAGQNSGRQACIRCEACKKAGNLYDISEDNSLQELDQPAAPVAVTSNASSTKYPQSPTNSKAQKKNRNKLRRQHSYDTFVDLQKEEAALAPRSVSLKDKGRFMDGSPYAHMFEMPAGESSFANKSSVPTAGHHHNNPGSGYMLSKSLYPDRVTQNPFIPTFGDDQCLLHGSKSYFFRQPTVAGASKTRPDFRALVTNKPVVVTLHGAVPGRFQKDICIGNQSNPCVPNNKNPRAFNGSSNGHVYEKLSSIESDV

- GluN1b-GluN2B NMDAR current, TEVC on Xenopus oocytes, Fv2 at 0.1 mg/ml (% of maximum current): 60
B1: Fv2, variable fragment (Fv) of IgG2 (protein)
VH: DVKLQESGGGLVQPGGSLKLSCAASGFTFSSYTMSWVRQTPEKRLEWVAYISNGGGGTYYPDTVKGRFTISRDNAKNTLYLQMNSLKEDTAMYYCARPSRGGSSYWYFDVWGAGTTVTVSS
VL: DIQMTQSPSSLSASLGGKVTITCKASQDINKYIAWYQHKPGKGPRLLIHYTSSLQPGIPSRFSGSGSGRDYSFSISNLEPEDIATYYCLQYDNLYTFGGGTKLEIK
